According to US5487994, “Insertion and deletion mutants of FokI restriction endonuclease” (The Johns Hopkins University):

Legend:
[1] = target: FokI TAEL (+4) insertion mutant (Flavobacterium okeanokoites, UniProt P14870 P14870:2-579, insertion of TAEL after QLV in linker (linker SEQ 21)); assay: filter; similar to wild-type; conditions: label: 32P
Protocol: (§1) The filter binding assays were performed in duplicate using *Fok*I or mutant enzymes and the four different synthetic substrates, SEQ ID NO:12, SEQ ID NO:13, hemi-methylated oligonucleotide of SEQ ID NO:12 and hemi-methylated oligonucleotide of SEQ ID NO:13. Nine different concentrations for each of the enzymes were made by serial dilutions ([…], 2000, 667, 222, 74.1, 24.7, 8.23, 2.74 and 0.914 nM). The enzymes were mixed with 40 nM of each labelled substrate along with 50 μg/ml p(dI-dC) and 50 μg/ml BSA in 50 μl of buffer A[10 mM Tris. phosphate (pH 8.0), 7 mM 2-mercaptoethanol, 1 mM EDTA, 50 mM NaCl, and 10% (vol/vol) glycerol]. The samples were incubated at 22° C. for 1 hr and then loaded on to nitrocellulose filters. The filters were washed twice with 0.5 ml of buffer A, dried and counted using the scintillation counter.
(§2) Why does the four amino-acid residue insertions enable the mutant enzymes to cleave hemi-methylated DNA and not the larger inserts? The four codon insertions could increase the affinity of the mutants for the hemi-methylated DNA. The binding affinities of wild-type enzyme and both four codon insertion mutants were compared by filter binding assays using the synthetic oligonucleotide substrates (FIGS. 9A, 9B and 9C). The binding affinities were measured in the presence of non-specific DNA, poly dI-dC.

[2] = target: FokI endonuclease wild-type (Flavobacterium okeanokoites, UniProt P14870 P14870:2-579); assay: filter; with poly(dI-dC), 1 mM EDTA, 50 mM NaCl, 22 C; values only in figure; conditions: tags: expressed in E. coli RR1 from pRRSfokIR; label: 32P
Protocol: as §1, §2

Sequence of FokI endonuclease wild-type (P14870 2-579, one chain of several): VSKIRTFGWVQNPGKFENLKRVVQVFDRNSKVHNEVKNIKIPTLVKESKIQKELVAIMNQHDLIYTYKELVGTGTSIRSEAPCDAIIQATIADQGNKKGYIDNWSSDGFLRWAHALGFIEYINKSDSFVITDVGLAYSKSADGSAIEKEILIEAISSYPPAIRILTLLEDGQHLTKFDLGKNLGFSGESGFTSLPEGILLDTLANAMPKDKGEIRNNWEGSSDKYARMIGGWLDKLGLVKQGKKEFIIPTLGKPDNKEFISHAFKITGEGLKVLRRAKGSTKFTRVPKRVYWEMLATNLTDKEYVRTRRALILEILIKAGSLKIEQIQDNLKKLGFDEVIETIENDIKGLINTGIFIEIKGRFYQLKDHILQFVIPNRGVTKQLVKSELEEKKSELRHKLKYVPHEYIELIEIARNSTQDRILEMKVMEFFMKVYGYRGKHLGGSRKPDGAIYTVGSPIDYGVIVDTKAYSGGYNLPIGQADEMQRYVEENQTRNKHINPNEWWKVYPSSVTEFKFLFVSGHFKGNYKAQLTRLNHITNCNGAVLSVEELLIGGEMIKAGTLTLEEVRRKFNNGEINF
Sequence of FokI TAEL (+4) insertion mutant (P14870 other isoform, or with tags, fused parts or gaps with the stated changes): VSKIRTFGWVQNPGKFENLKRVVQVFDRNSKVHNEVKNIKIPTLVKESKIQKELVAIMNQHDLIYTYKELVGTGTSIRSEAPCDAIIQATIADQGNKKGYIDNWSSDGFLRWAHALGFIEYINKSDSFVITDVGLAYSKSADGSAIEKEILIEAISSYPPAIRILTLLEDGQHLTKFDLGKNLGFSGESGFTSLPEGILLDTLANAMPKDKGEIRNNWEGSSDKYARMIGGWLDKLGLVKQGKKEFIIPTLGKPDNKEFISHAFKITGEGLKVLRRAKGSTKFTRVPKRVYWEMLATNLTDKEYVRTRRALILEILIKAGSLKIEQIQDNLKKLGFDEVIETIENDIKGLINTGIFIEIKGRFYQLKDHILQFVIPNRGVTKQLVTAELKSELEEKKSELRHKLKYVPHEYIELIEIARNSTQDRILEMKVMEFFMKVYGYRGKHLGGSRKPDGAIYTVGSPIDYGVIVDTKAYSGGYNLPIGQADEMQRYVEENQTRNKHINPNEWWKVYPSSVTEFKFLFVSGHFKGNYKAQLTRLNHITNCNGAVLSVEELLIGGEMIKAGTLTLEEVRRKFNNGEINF

B1: unmethylated FokI substrate (dsDNA)
DNA 1: CTAGAGTCAGAATTCGAAGACTTGCCGGATGATCTGCAGGCCAGCTGTGGCGTCTAAATTGA
DNA 2: AGCTTCAATTTAGACGCCACAGCTGGCCTGCAGATCATCCGGCAAGTCTTCGAATTCTGACT
B1: binds [1]; binds [2].
